Patent US20250027068
Positions count from the first letter of the chain named.

B1: PRT-10 (protein)
chain: MANQEIRYSEVTPYTVTSVWTKGVTPPANFTQGEDVFHAPYVANQGWYDITKTFNGKDDLLCGAATAGNMLHWWFDQNKEQIERYLKEHPEKQKINFNGEQMFDVKEAIDTKDSQLDSELFEYFKEKAFPYLSTKHLGVFPDHVIDMFINGYRLSLTNHGPTPVKEGSKDPRGGIFDAVFTRGDQSKLLTSRHDFKEKTLKEISDLIKKELTEGKALALSHTYANVRINHVINLWGADFDSEGNLEAIYVTDSDSNASIGMKKYFVGVNSAGKVAISAKEIEDDNIGAQVLGLFTLSTGQDIWNQTN
B2: PRT-123 (protein)
chain: MRNATEAYNKESPHTITSVWTKGVTPPTPEDFRYNNEDVLHAPYVANQGWYDITKTFDGKDNLLCGAATAGNMLHWWFDQNKEEIERYLKKHPEKQKIIFNNQELFDVKAAIDTKDSQTNSKLFNYFRDKAFPNLSARQLGVMPDLVLDMFINGYYLNLGKTQSTDVNRPYQDKDKRGGIFDAVFTRGDQTTLLTARHDLKNKGLNEISDLIKQELTEGKALALSHTYANVRINHVINLWGADFDAEGNLIAIYVTDSDANASIGMKKYFVGVNANGKVAISAKKIEGDNIGAQVLGLFTLSTGQDIWQKLS
B3: PRT-124 (protein)
chain: MRNATEAYAKEVPHQITSVWTKGVTPLTPEQFRYNNEDVIHAPYLAHQGWYDITKTFDGKDNLLCGAATAGNMLHWWFDQNKTEIEAYLSKHPEKQKIIFNNQELFDLKAAIDTKDSQTNSQLFNYFRDKAFPNLSARQLGVMPDLVLDMFINGYYLNVFKTQSTDVNRPYQDKDKRGGIFDAVFTRGDQTTLLTARHDLKNKGLNDISTIIKQELTEGKALALSHTYANVSISHVINLWGADFNAEGNLEAIYVTDSDANASIGMKKYFVGVNAHGKVAISAKKIEGENIGAQVLGLFTLSSGKDIWQKLS
B4: PRT-126 (protein)
chain: B3 chain with H47N, T210D, I211L, A260S, H276A, K278H
B5: PRT-125 (protein)
chain: B3 chain with I40F, H47N, T192K, I211L, K278H
B6: PRT-120 (protein)
chain: MRNATEAYNEETPKQITSVWTKGVTPLTPEDFRYNNEDVFHAPYLANQGWYDITKTFNGKDNLLCGAATAGNMLHWWFDQNKEEIEAYLKKHPEKQKIIFNNQELFDLKAAIDTKDSQTNSQLFNYFKDKAFPNLSARQLGVMPDLVLDMFINGYYLNVNKTQSTDVNRPYQDKDKRGGIFDAVFTRGDQTKLLTERHDLKNKGLNDISTLIKQELTEGKALALSHTYANVSINHVINLWGADFDAEGNLEAIYVTDSDSNESIGMKKYFVGINAAGKVAISAKKIEDENIGAQVLGLFTLSSGKDIWQQLS
B7: PRT-117 (protein)
chain: MRNATEAYAKEVPHTITSVWTKGVTPPTPEQFTYQNEDVFHAPYLANQGWYDITKTFNGKDNLLCGAATAGNMLHWWFDQNKEEIERYLSKHPEKQKIIFNNQELFDLKAAIDTKDSQTNSALFNYFRDKAFPNLSARQLGVMPDLVLDMFINGYYLNVFKTQSTDVNRPYQDKDKRGGIFDAVFTRGDQTTLLTARHDLKNKGLNDISDLIKQELTEGKALALSHTYANVSISHVINLWGADFNAEGNLEAIYVTDSDANASIGMKKYFVGVNTAGKVAISAKKIEGENIGAQVLGLFTLSSGKDIWEQLS
B8: PRT-119 (protein)
chain: MRNATEAYAKETPKQITSVWTKGVTPPTPEQFRYNNEDVFHAPYVANQGWYDITKTFDGKDNLLCGAATAGNMLHWWFDQNKTEIEKYLSKHPEKQKIIFNNQELFDLKAAIDTKDSQTNSQLFNYFRDKAFPNLSARQLGVMPDLVLDMFINGYYLNVTKTQSTDVNRPYQDKDKRGGIFDAVFTRGDQTKLLTARHDLGNKSLNEISQLIKQELQEGKALALSHTYANVRISHVINLWGADFDAEGNLEAIYVTDSDSNASIGMKKYYVGVNSAGKVAISAKKIEGENIGAQVLGLFTLSSGKDIWQKLS
B9: PRT-122 (protein)
chain: MRNATEAYAKEVPKKITSVWTKGVTPLTPEQFIYQNEDVFHAPYLAHQGWYDITKTFNGKDNLLCGAATAGNMLHWWFDQNKEEIERYLSKHPEKQKIIFNNQELFDLKAAIDTKDSQTNSALFNYFRDKAFPNLSARQLGVMPDLVLDMFINGYYLNVTKTQSTDVNRPYQTKDKRGGIFDAVFTRGDQTKLLTERHDLKNKTLEEISQLIKQELTEGKALGLSHTYANVRISHVINLWGADFDAEGNLEAIYVTDSDSNASIGMKKYFVGVNASGKVAISAKKIEDDNIGAQVLGLFTLSSGKDIWEKLS
B10: PRT-118 (protein)
chain: MRNATEAYNKETPKTITSVWTKGVTPPTPEQFTKQNEDVFHAPYVANQGWYDITKTFNGKDNLLCGAATAGNMLHWWFDQNKTEIENYLKKHPEKQKIIFNNQELFDLKAAIDTKDSQTNSALFNYFRDKAFPNLSARQLGVMPDHVLDMFINGYYLNVNKTQSTDVNRPYDDKDKRGGIFDAVFTRGDQTTLLTARHDLKNKGLNEISTLIKQELTEGRALALSHTYANVSISHVINLWGADFNAEGNLEAIYVTDSDANASIGMKKYFVGKNASGKVAISAKKIEGDNIGAQVLGLFTLSSGKDIWQKLS
B11: PRT-121 (protein)
chain: MRNATEAYNEDTPKQITSVWTKGVTPPTPEQFRKYNEDVLHAPYIANQGWYDITKTFNGKDDLLCGAATAGNMLHWWFDQNKTEIEAYLSKYPEKQKIIFNNQELFDLRAAIDTKDSQTNSALFNYFRDKAFPNLSARQLGVMPDLVLDMFINGYYLNVTKTQSTDVNRPYQTKDKRGGIFDAVFTRGDQTTLLTSRHDLKNKTLNEISDLIKQELTEGKALALSHTYANVSISHVINLWGADFNAEGNLEAIYVTDSDANASIGMKKYFVGVNAAGKVAISAKKIEGENIGAQVLGLFTLSTGKDIWEKLS

Molecular target: pooled human IgG

Protein	Enzyme Activity Endpoint Assay: Fab′2 [ng/µL]	Enzyme Activity Endpoint Assay: Fc [ng/µL]	Enzyme Activity Endpoint Assay: IgG [ng/µL]	Enzyme Activity Endpoint Assay: scIgG [ng/µL]	Enzyme Activity Endpoint Assay (purified): Fab'2 [ng/µL]	Enzyme Activity Endpoint Assay (purified): Fc [ng/µL]	Enzyme Activity Endpoint Assay (purified): IgG [ng/µL]	Enzyme Activity Endpoint Assay (purified): scIgG [ng/µL]
B1	2	56	32	58				
B2					468	187	0	0
B3					676	202	0	0
B4					472	160	0	0
B5					609	197	0	0
B6					92	113	28	153
B7					663	207	0	0
B8					15	96	0	133
B9					565	194	138	0
B10					23	85	0	153
B11					447	174	0	0
